How the values were obtained:
Format in all cases: biochemical
[1] = HTP-analysis of supernatants pretreated with acid (MUGal hydrolysis); conditions: challenge at pH 4.2; activity of the variant/activity of WT GLA (SEQ ID NO: 5); yeast supernatant
Summary of the method: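 GLA variants were secreted from INVSc1 yeast grown 66-84 h at 30° C. in SD-Ura with 2% glucose; supernatants were mixed with McIlvaine buffer pH 3.3-4.3 and held at 37° C. for 1-3 h. Residual activity on MUGal at pH 4.8 was then measured by fluorescence.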

[2] = HTP-analysis of supernatants pretreated with base (MUGal hydrolysis); conditions: challenge at pH 7.1; activity of the variant/activity of WT GLA (SEQ ID NO: 5); yeast supernatant
Summary of the method: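 Fluorescence of released 4-MU (Ex 355 nm, Em 448 nm) after carbonate quench reports MUGal hydrolysis by GLA variants secreted from INVSc1 yeast. Before the acidic (pH 4.3-4.8) 30-180 min reaction at 37° C, supernatants had been pre-incubated at pH 7.0-9.7 for 1-18 h at 37° C.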

[3] = HTP-analysis of yeast culture supernatants, no challenge (MUGal hydrolysis); conditions: activity of the variant/activity of WT GLA (SEQ ID NO: 5), yeast supernatant
Summary of the method: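 Activity read as 4-methylumbelliferyl α-D-galactopyranoside hydrolysis: fluorescence (355/448 nm) after sodium carbonate stop, following 30-180 min at 37° C with 2 mM MUGal stock at pH 4.6–4.8. Enzyme source is unchallenged culture supernatant of INVSc1 yeast expressing GLA variants, grown 66-84 h at 30° C.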

B1: 60 (protein)
chain: LDNGLARTPTMGWLHWERFMCNLDCQEEPDSCISEKLFMEMAELMVSEGWKDAGYEYLCIDDCWMAPQRDSEGRLQADPQRFPHGIRQLANYVHSKGLKLGIYADVGNKTCAGFPGSFGYYDIDAQTFADWGVDLLKFDGCYCDSLENLADGYKHMSLALNRTGRSIVYSCEWPLYMWPFQKPNYTEIRQYCNHWRNFADIDDSWKSIKSILDWTSFNQERIVDVAGPGGWNDPDMLVIGNFGLSWNQQVTQMALWAIMAAPLFMSNDLRHISPQAKALLQDKDVIAINQDPLGKQGYQLRQGDNFEVWERPLSGLAWAVAMINRQEIGGPRSYTIAVASLGKGVACNPACFITQLLPVKRKLGTYEWTSRLRSHINPTGTVLLQLENTMQMSKDLLL
modifications: Synthetic Polypeptide sequence of Variant No. 60 of mature Human GLA
[1]
  Relative Activity of GLA Variants After Challenge at pH 4.2: + (+ = 0.5 to 1.5 relative activity over WT GLA (SEQ ID NO: 5))
[2]
  Relative Activity of GLA Variants After Challenge at pH 7.1: + (+ = 0.5 to 1.5 relative activity over WT GLA (SEQ ID NO: 5))
[3]
  Relative Activity of GLA Variants After No Challenge (NC): + (+ = 0.5 to 1.5 relative activity over WT GLA (SEQ ID NO: 5))

B2: 61 (protein)
chain: LDNGLARTPTMGWLHWERFMCNLDCQEEPDSCISEKLFMEMAELMVSEGWKDAGYEYLCIDDCWMAPQRDSEGRLQADPQRFPHGIRQLANYVHSKGLKLGIYADVGNKTCAGFPGSFGYYDIDAQTFADWGVDLLKFDGCYCDSLENLADGYKHMSLALNRTGRSIVYSCEWPLYMWPFQKPNYTEIRQYCNHWRNFADIDDSWKSIKSILDWTSFNQERIVDVAGPGGWNDPDMLVIGNFGLSWNQQVTQMALWAIMAAPLFMSNDLRHISPQAKALLQDKDVIAINQDPLGKQGYQLRQGDNFEVWERPLSGLAWAVAMINRQEIGGPRSYTIAVASLGKGVACNPACFITQLLPVKRKLGVYEWTSRLRSHINPTGTVLLQLENTMQMSKDLLL
modifications: Synthetic Polypeptide sequence of Variant No. 61 of mature Human GLA
[1]
  Relative Activity of GLA Variants After Challenge at pH 4.2: ++ (++ = >1.5 to 2.5 relative activity over WT GLA (SEQ ID NO: 5))
[2]
  Relative Activity of GLA Variants After Challenge at pH 7.1: ++ (++ = >1.5 to 2.5 relative activity over WT GLA (SEQ ID NO: 5))
[3]
  Relative Activity of GLA Variants After No Challenge (NC): ++ (++ = >1.5 to 2.5 relative activity over WT GLA (SEQ ID NO: 5))

B3: 62 (protein)
chain: LDNGLARTPTMGWLHWERFMCNLDCQEEPDSCISEKLFMEMAELMVSEGWKDAGYEYLCIDDCWMAPQRDSEGRLQADPQRFPHGIRQLANYVHSKGLKLGIYADVGNKTCAGFPGSFGYYDIDAQTFADWGVDLLKFDGCYCDSLENLADGYKHMSLALNRTGRSIVYSCEWPLYMWPFQKPNYTEIRQYCNHWRNFADIDDSWKSIKSILDWTSFNQERIVDVAGPGGWNDPDMLVIGNFGLSWNQQVTQMALWAIMAAPLFMSNDLRHISPQAKALLQDKDVIAINQDPLGKQGYQLRQQDNFEVWERPLSGLAWAVAMINRQEIGGPRSYTIAVASLGKGVACNPACFITQLLPVKRKLGFYEWTSRLVSHINPTGTVLLQLENTMQMSKDLLL
modifications: Synthetic Polypeptide sequence of Variant No. 62 of mature Human GLA
[1]
  Relative Activity of GLA Variants After Challenge at pH 4.2: + (+ = 0.5 to 1.5 relative activity over WT GLA (SEQ ID NO: 5))
[2]
  Relative Activity of GLA Variants After Challenge at pH 7.1: ++ (++ = >1.5 to 2.5 relative activity over WT GLA (SEQ ID NO: 5))
[3]
  Relative Activity of GLA Variants After No Challenge (NC): ++ (++ = >1.5 to 2.5 relative activity over WT GLA (SEQ ID NO: 5))

B4: 64 (protein)
chain: LDNGLARTPTMGWLHWERFMCNLDCQEEPDSCISEKLFMEMAELMVSEGWKDAGYEYLCIDDCWMAPQRDSEGRLQADPQRFPHGIRQLANYVHSKGLKLGIYADVGNKTCAGFPGSFGYYDIDAQTFADWGVDLLKFDGCYCDSLENLADGYKLMSLALNRTGRSIVYSCEWPLYMWPFQKPNYTEIRQYCNHWRNFADIDDSWKSIKSILDWTSFNQERIVDVAGPGGWNDPDMLVIGNFGLSWNQQVTQMALWAIMAAPLFMSNDLRHISPQAKALLQDKDVIAINQDPLGKQGYQLRQGDNFEVWERPLSGLAWAVAMINRQEIGGPRSYTIAVASLGKGVACNPACFITQLLPVKRKLGFYEWTSRLRSHINPTGTVLLQLENTMQMSKDLLL
modifications: Synthetic Polypeptide sequence of Variant No. 64 of mature Human GLA
[1]
  Relative Activity of GLA Variants After Challenge at pH 4.2: + (+ = 0.5 to 1.5 relative activity over WT GLA (SEQ ID NO: 5))
[2]
  Relative Activity of GLA Variants After Challenge at pH 7.1: ++ (++ = >1.5 to 2.5 relative activity over WT GLA (SEQ ID NO: 5))
[3]
  Relative Activity of GLA Variants After No Challenge (NC): + (+ = 0.5 to 1.5 relative activity over WT GLA (SEQ ID NO: 5))

B5: 63 (protein)
chain: LDNGLARTPTMGWLHWERFMCNLDCQEEPDSCISEKLFMEMAELMVSEGWKDAGYEYLCIDDCWMAPQRDSEGRLQADPQRFPHGIRQLANYVHSKGLKLGIYADVGNKTCAGFPGSFGYYDIDAQTFADWGVDLLKFDGCYCDSLENLADGYKAMSLALNRTGRSIVYSCEWPLYMWPFQKPNYTEIRQYCNHWRNFADIDDSWKSIKSILDWTSFNQERIVDVAGPGGWNDPDMLVIGNFGLSWNQQVTQMALWAIMAAPLFMSNDLRHISPQAKALLQDKDVIAINQDPLGKQGYQLRQGDNFEVWERPLSGLAWAVAMINRQEIGGPRSYTIAVASLGKGVACNPACFITQLLPVKRKLGFYEWTSRLRSHINPTGTVLLQLENTMQMSKDLLL
modifications: Synthetic Polypeptide sequence of Variant No. 63 of mature Human GLA
[1]
  Relative Activity of GLA Variants After Challenge at pH 4.2: + (+ = 0.5 to 1.5 relative activity over WT GLA (SEQ ID NO: 5))
[2]
  Relative Activity of GLA Variants After Challenge at pH 7.1: ++ (++ = >1.5 to 2.5 relative activity over WT GLA (SEQ ID NO: 5))
[3]
  Relative Activity of GLA Variants After No Challenge (NC): + (+ = 0.5 to 1.5 relative activity over WT GLA (SEQ ID NO: 5))

B6: 66 (protein)
chain: LDNGLARTPTMGWLHWERFMCNLDCQEEPDSCISEKLFMEMAELMVSEGWKDAGYEYLCIDDCWMAPQRDSEGRLQADPQRFPHGIRQLANYVHSKGLKLGIYADVGNKTCAGFPGSFGYYDIDAQTFADWGVDLLKFDGCYCDSLENLADGYKTMSLALNRTGRSIVYSCEWPLYMWPFQKPNYTEIRQYCNHWRNFADIDDSWKSIKSILDWTSFNQERIVDVAGPGGWNDPDMLVIGNFGLSWNQQVTQMALWAIMAAPLFMSNDLRHISPQAKALLQDKDVIAINQDPLGKQGYQLRQGDNFEVWERPLSGLAWAVAMINRQEIGGPRSYTIAVASLGKGVACNPACFITQLLPVKRKLGFYEWTSRLRSHINPTGTVLLQLENTMQMSKDLLL
modifications: Synthetic Polypeptide sequence of Variant No. 66 of mature Human GLA
[1]
  Relative Activity of GLA Variants After Challenge at pH 4.2: + (+ = 0.5 to 1.5 relative activity over WT GLA (SEQ ID NO: 5))
[2]
  Relative Activity of GLA Variants After Challenge at pH 7.1: + (+ = 0.5 to 1.5 relative activity over WT GLA (SEQ ID NO: 5))
[3]
  Relative Activity of GLA Variants After No Challenge (NC): + (+ = 0.5 to 1.5 relative activity over WT GLA (SEQ ID NO: 5))

B7: 67 (protein)
chain: LDNGLARTPTMGWLHWERFMCNLDCQEEPDSCISEKLFMEMAELMVSEGWKDAGYEYLCIDDCWMAPQRDSEGRLQADPQRFPHGIRQLANYVHSKGLKLGIYADVGNKTCAGFPGSFGYYDIDAQTFADWGVDLLKFDGCYCDSLENLADGYKEMSLALNRTGRSIVYSCEWPLYMWPFQKPNYTEIRQYCNHWRNFADIDDSWKSIKSILDWTSFNQERIVDVAGPGGWNDPDMLVIGNFGLSWNQQVTQMALWAIMAAPLFMSNDLRHISPQAKALLQDKDVIAINQDPLGKQGYQLRQGDNFEVWERPLSGLAWAVAMINRQEIGGPRSYTIAVASLGKGVACNPACFITQLLPVKRKLGFYEWTSRLRSHINPTGTVLLQLENTMQMSKDLLL
modifications: Synthetic Polypeptide sequence of Variant No. 67 of mature Human GLA
[1]
  Relative Activity of GLA Variants After Challenge at pH 4.2: + (+ = 0.5 to 1.5 relative activity over WT GLA (SEQ ID NO: 5))
[2]
  Relative Activity of GLA Variants After Challenge at pH 7.1: ++ (++ = >1.5 to 2.5 relative activity over WT GLA (SEQ ID NO: 5))
[3]
  Relative Activity of GLA Variants After No Challenge (NC): ++ (++ = >1.5 to 2.5 relative activity over WT GLA (SEQ ID NO: 5))

B8: 65 (protein)
chain: LDNGLARTPTMGWLHWERFMCNLDCQEEPDSCISEKLFMEMAELMVSEGWKDAGYEYLCIDDCWMAPQRDSEGRLQADPQRFPHGIRQLANYVHSKGLKLGIYADVGNKTCAGFPGSFGYYDIDAQTFADWGVDLLKFDGCYCDSLENLADGYKRMSLALNRTGRSIVYSCEWPLYMWPFQKPNYTEIRQYCNHWRNFADIDDSWKSIKSILDWTSFNQERIVDVAGPGGWNDPDMLVIGNFGLSWNQQVTQMALWAIMAAPLFMSNDLRHISPQAKALLQDKDVIAINQDPLGKQGYQLRQGDNFEVWERPLSGLAWAVAMINRQEIGGPRSYTIAVASLGKGVACNPACFITQLLPVKRKLGFYEWTSRLRSHINPTGTVLLQLENTMQMSKDLLL
modifications: Synthetic Polypeptide sequence of Variant No. 65 of mature Human GLA
[1]
  Relative Activity of GLA Variants After Challenge at pH 4.2: + (+ = 0.5 to 1.5 relative activity over WT GLA (SEQ ID NO: 5))
[2]
  Relative Activity of GLA Variants After Challenge at pH 7.1: + (+ = 0.5 to 1.5 relative activity over WT GLA (SEQ ID NO: 5))
[3]
  Relative Activity of GLA Variants After No Challenge (NC): + (+ = 0.5 to 1.5 relative activity over WT GLA (SEQ ID NO: 5))
